B1: HDV Ribozyme (parent)
chain: GGCCGGCAUGGUCCCAGCCUCCUCGCUGGCGCCGGCUGGGCAACAUUCCGAGGGGACCGUCCCCUCGGUAAUGGCGAAUGGGACCCA

Variants of: B1
Experiment: self-cleavage, relative activity (ratio to wild type); higher = more cleavage; co-transcriptional

Row | Variant | self-cleavage
1 | GGCCGGCAUGGUCCCAGCCACCUCGCUGGCGCCGGCUGAGCAACAUUCCGAGGGGACCGUCCCCUCGGUAAUGGCGAAUGGGACCCA [U20A G39A] | 0.133
2 | GGCCGGCAUGGUCCCAGCCGCCUCGCUGGCGCCGGCUGGGCAACAUUCCGAGGGGACCGUCCCCUCGGUAAUGGCGAAUAGGACCCA [U20G G80A] | 0.0831
3 | GGCCGGCAUGGUCCCAGGCUCCUCGCUGGCGCCGGCUGGGCAACGUUCCGAGGGGACCGUCCCCUCGGUAAUGGCGAAUGGGACCCA [C18G A45G] | 0.0639
4 | GGCCGGCAUGGUCCCAGCCUACUCGCUGGCGCCGGCUGGGCAAUAUUCCGAGGGGACCGUCCCCUCGGUAAUGGCGAAUGGGACCCA [C21A C44U] | 0.0346
5 | GGCCGGCAUGGUCCCAGCCUCCUCGCUGGCGGCGGCCGGGCAACAUUCCGAGGGGACCGUCCCCUCGGUAAUGGCGAAUGGGACCCA [C32G U37C] | 0.264
6 | AGCCGGCACGGUCCCAGCCUCCUCGCUGGCGCCGGCUGGGCAACAUUCCGAGGGGACCGUCCCCUCGGUAAUGGCGAAUGGGACCCA [G1A U9C] | 0.369
7 | GGCCGGCAUGGUCCCAGCCUCCUCGCUGGCGCCGGCUGGGCAAUAUUCCGAGCGGACCGUCCCCUCGGUAAUGGCGAAUGGGACCCA [C44U G53C] | 0.658
8 | GGCCGGCAUGGUACCAGCCUCCUCGCGGGCGCCGGCUGGGCAACAUUCCGAGGGGACCGUCCCCUCGGUAAUGGCGAAUGGGACCCA [C13A U27G] | 0.594
9 | GGCCGGCAUGGUCCCAGCCUCCUCGCUGGCGCCGGCUGGGCAACAUUGCGAGGGGACCGUCCCCUCGGUAAUGACGAAUGGGACCCA [C48G G74A] | 0.305
10 | GGCCGGCACGGUCCCAGCCUCCUCGCUGGCGCCCGCUGGGCAACAUUCCGAGGGGACCGUCCCCUCGGUAAUGGCGAAUGGGACCCA [U9C G34C] | 0.361
11 | GGCCGGCAUGGUCCCAGCUUCUUCGCUGGCGCCGGCUGGGCAACAUUCCGAGGGGACCGUCCCCUCGGUAAUGGCGAAUGGGACCCA [C19U C22U] | 0.058
12 | CGCCGGCAUGGUCCCAGCCUCCUCGCUGGCGCCGGCUGGGCAACAUUCCGAGGGGACCGUCCCCUCGGUAAUGGCGAAUGGAACCCA [G1C G82A] | 0.0475
13 | GGCCGGCAUGGUCCCAGCCUCCUCGCUGGCGCCGGCUGCGCAACAUUCAGAGGGGACCGUCCCCUCGGUAAUGGCGAAUGGGACCCA [G39C C49A] | 0.237
14 | GGCCGGCAUGGUCCCAGCCUCCUCGCUGGCGCAGGCUGGGCAACAUUCCGAGGGGACCGUCCCCUCGGUAAUGGAGAAUGGGACCCA [C33A C75A] | 0.122
15 | GGCCGGCAUGGUCCCAGCCUCCUCGCUGGCGCCGGAUGGGCAACAUUCCGAGGGGAUCGUCCCCUCGGUAAUGGCGAAUGGGACCCA [C36A C57U] | 0.102
16 | GGCCGGCAUGGUCCCAGCCUCCUCGCUGGCGCCGGCUGGGCAACAUUCCCAGGGGACCGUACCCUCGGUAAUGGCGAAUGGGACCCA [G50C C61A] | 0.865

Row | Variant | self-cleavage
17 | GGCCGGCAUGGUCCCAGCCUCCUCGCUGGCGCCGGCUCGGCAACAUUCAGAGGGGACCGUCCCCUCGGUAAUGGCGAAUGGGACCCA [G38C C49A] | 0.237
18 | GGCCGGCAGGGUCCCAGCCUCCUCGCUGGCGCCGGCUGGGCAACAUUCCGAGGGGACAGUCCCCUCGGUAAUGGCGAAUGGGACCCA [U9G C58A] | 1.42
19 | GGCCGGCAUGGUCCCAGCAUCCUCGCUGGCGCCGGCUGGGCAACAUUCCGAGGGGACCGUCCCCUCGAUAAUGGCGAAUGGGACCCA [C19A G68A] | 0.0631
20 | GGCCGGCAUGGUCCCAGCCUGCUCGCUGGCGCCGGCUGGGCAACAUUCCGAGGGGACCGUCCUCUCGGUAAUGGCGAAUGGGACCCA [C21G C63U] | 0.0339
21 | AGCCGGCAUGGUCCCAGCCUCCUCGCUGGCGCCGGCUGGGCAACAUUCCGAGGUGACCGUCCCCUCGGUAAUGGCGAAUGGGACCCA [G1A G54U] | 0.0475
22 | GGCCGGCAUGGUCCCAGCCUCCUCGCUGGCGCCGGCUGGGCGACAUUCCGAGGGGACCGUGCCCUCGGUAAUGGCGAAUGGGACCCA [A42G C61G] | 0.831
23 | GGCCGGCAUGGUCCCAGCCUCCCCGCUGGCGCCGGCUGGGCAACAUUCCGAGGGGACCGUCCCCUCGGUAAUGGCGACUGGGACCCA [U23C A78C] | 0.231
24 | GGCCGGCAUGGUCCCAGCCUCCUCGCUGGCGCCGGCUGGGCAACAUUCCGAGGGGACCGACCCCUCGGUCAUGGCGAAUGGGACCCA [U60A A70C] | 0.808
25 | GGCCGGCAUGGUCCCAGCCUCCUCGCUGGCGCCGGCUGGGCAACAUUCCGAGGGGACCGUCCCCUCGGUAAUGGGGAAUGGGACUCA [C75G C85U] | 0.237
26 | GGCCGGCAUGGUCCCAGCCUCCUCGCUGGCGCCGGCUGGGCAACAUUCCGAGGGGACCGUGACCUCGGUAAUGGCGAAUGGGACCCA [C61G C62A] | 0.958
27 | GGCCGGCAUGGUCCCAGCCUCCUCGCUGGCGCCGUCUGGGCAACAUUCCGCGGGGACCGUCCCCUCGGUAAUGGCGAAUGGGACCCA [G35U A51C] | 0.332
28 | GGCCGGCAUGGUCCCAGCCUCCUCGCUGGCGCCGGCUGGGCAACAUUCCGAGGCGACCGUCCCCUCGGUAAGGGCGAAUGGGACCCA [G54C U72G] | 0.431
29 | GGCCGGCAUGGUCCCAGCCUCCUCGCUGGCGCCGGCUGGGCAACAUACCGAGGGGACCGUCCCCUCGGUAAUGGCGAAUAGGACCCA [U47A G80A] | 0.277
30 | GGCCGGCAUGGUCCCAGCCUCCUCGAUGGCGCCGGCUGGGCUACAUUCCGAGGGGACCGUCCCCUCGGUAAUGGCGAAUGGGACCCA [C26A A42U] | 0.525
31 | GGCCGGCAUGGUCCCAGCCUCCGCGCUGGCGCCGGCUGGGGAACAUUCCGAGGGGACCGUCCCCUCGGUAAUGGCGAAUGGGACCCA [U23G C41G] | 0.597
32 | GGCCGGCAUGGUCCCAGCCUCCUCGCUGGCGCCGGCUGGGCAGCAUUCCGAGGGGACCGUCCCCUCGGUAAUCGCGAAUGGGACCCA [A43G G73C] | 0.256
